From patent publication US20030232009A1 (Amgen, published 2003)

Key:
[1] = biological target: T1, Human CD45RB (format not stated) (human, UniProt P08575-9 26-1192, limits assumed); assay: screening of harvest 2
T1 construct: also called RB exon of CD45
T1 sequence (looked up): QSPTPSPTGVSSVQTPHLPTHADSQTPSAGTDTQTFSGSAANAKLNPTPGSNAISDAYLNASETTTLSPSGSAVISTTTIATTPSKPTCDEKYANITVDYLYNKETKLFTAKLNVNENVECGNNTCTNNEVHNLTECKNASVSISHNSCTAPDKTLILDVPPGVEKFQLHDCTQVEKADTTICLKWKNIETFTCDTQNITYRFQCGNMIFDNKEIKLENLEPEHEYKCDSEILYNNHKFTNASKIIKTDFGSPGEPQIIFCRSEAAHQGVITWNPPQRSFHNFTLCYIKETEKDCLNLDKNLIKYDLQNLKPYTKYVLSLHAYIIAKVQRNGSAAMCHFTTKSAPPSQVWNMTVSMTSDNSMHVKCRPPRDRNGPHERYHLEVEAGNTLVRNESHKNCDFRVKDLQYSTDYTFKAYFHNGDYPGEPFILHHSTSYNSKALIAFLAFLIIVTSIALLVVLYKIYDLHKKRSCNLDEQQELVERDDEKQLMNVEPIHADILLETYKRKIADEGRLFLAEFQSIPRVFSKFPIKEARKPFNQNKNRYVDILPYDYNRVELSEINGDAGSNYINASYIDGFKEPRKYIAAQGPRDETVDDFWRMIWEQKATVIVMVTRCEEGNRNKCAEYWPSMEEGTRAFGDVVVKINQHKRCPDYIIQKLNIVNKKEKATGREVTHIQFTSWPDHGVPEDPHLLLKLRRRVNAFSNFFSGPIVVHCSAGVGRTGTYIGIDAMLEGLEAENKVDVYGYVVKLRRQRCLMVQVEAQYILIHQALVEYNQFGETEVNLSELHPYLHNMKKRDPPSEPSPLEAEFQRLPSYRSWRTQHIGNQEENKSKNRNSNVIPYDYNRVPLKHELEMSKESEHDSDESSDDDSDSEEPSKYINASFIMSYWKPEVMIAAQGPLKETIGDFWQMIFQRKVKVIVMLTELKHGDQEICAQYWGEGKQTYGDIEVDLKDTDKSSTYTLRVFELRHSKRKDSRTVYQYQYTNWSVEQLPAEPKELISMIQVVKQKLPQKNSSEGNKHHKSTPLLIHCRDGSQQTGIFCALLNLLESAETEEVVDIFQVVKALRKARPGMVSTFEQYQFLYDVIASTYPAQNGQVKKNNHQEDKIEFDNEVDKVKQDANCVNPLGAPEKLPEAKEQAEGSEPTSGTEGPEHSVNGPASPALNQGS

[2] = biological target: T2, chimeric CD45RB (full length human CD45RB with the macaque RB exon) transiently expressed in CHO cells (human; macaque, UniProt P08575-9 26-33; P08575-9 81-1192); assay: transiently transfected CHO cells
T2 construct: whole chimeric protein on CHO cells; also called Macaque CD45RB CHO
T2 sequence: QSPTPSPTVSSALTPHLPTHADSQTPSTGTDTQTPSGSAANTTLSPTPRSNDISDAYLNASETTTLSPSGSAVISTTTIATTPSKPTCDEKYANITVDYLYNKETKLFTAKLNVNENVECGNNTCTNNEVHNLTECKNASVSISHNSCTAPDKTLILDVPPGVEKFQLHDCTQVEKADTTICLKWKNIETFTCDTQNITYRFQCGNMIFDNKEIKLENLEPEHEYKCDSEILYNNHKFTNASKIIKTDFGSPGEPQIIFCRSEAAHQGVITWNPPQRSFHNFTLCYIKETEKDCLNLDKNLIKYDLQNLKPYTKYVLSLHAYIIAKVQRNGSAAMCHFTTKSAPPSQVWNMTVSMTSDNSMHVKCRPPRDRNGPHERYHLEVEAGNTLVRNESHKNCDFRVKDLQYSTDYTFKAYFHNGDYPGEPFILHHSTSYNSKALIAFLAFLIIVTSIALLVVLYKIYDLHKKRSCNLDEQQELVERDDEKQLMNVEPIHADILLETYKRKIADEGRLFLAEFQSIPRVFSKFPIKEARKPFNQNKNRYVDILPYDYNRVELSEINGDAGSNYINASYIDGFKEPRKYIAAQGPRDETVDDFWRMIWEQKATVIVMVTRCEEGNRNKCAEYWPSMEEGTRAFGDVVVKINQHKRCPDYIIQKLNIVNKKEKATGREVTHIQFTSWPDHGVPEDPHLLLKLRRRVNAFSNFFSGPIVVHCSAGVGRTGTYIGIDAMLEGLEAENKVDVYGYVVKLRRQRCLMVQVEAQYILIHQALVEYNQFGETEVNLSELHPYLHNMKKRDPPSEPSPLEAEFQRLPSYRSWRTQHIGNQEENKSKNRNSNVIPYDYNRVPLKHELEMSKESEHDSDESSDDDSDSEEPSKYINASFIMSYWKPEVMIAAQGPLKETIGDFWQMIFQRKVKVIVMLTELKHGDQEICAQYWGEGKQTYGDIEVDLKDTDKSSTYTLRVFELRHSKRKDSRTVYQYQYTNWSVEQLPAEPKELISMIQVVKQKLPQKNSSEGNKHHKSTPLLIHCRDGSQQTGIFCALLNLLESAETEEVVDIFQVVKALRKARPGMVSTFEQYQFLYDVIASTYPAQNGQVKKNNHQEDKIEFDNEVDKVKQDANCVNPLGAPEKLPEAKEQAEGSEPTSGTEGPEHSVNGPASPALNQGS

Human 20.2 peptide = biological target: T3, Human 20.2 peptide (human); assay: recombinant antibody on peptide
T3 construct: synthetic peptide from the RB exon
T3 peptide: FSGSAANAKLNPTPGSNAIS

Human 20.1 peptide = biological target: T4, Human 20.1 peptide (human); assay: recombinant antibody on peptide
T4 construct: synthetic peptide from the RB exon
T4 peptide: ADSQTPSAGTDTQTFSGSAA

[3] = biological target: T5, Human 46 mer peptide (RB exon of human CD45) (human); assay: recombinant antibody on peptide
T5 construct: synthetic peptide; also called CD45RB 46 mer
T5 peptide: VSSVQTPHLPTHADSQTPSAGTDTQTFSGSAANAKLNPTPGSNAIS

Human 18 mer peptide = biological target: T6, Human 18 mer peptide (human); assay: recombinant antibody on peptide
T6 construct: synthetic peptide from the RB exon
T6 peptide: VSSVQTPHLPTHADSQTPC

[4] = biological target: T7, Macaque 46 mer peptide (RB exon of macaque CD45RB) (macaque); assay: recombinant antibody on peptide
T7 construct: synthetic peptide
T7 peptide: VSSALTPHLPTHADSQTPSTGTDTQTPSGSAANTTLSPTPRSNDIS

[5] = biological target: T1, Human CD45RB (format not stated); assay: screening of harvest 9

Row | binding result [1] | binding result [2] | binding result (Human 20.2 peptide) | binding result (Human 20.1 peptide) | binding result [3] | binding result (Human 18 mer peptide) | binding result [4] | binding result [5] | Binder
1 | binds | no binding | no binding | no binding | binds | no binding | – | – | AB-CD45RB-XG2-009 (antibody, human IgG2, V domains shown, recombinant human IgG2 kappa; also called sc009; 16C9 (sc009)) VH: QVQLVESGGGVVQPGRSLRLSCAASGFTFSNYGMHWVRQAPGKGLEWVAVIWYDGSKRFYAGSVKGRFTISRDNSKNTLYLQMNSLRAEDTAVYYCARTTDYWGQGTMVTVSS VL: DIVMTQTPLSLSVTPGQPASISCKSSQSLLHSDGKTYLYWYLQKPGQPPQLLIYEVSNRFSGVPDRFSGSGSGTDFTLKISRVEAEDVGLYWCMQSIQLPITFGQGTRLEIK
2 | – | – | no binding | no binding | no binding | no binding | no binding | binds | AB-CD45RB-XG2-648 (antibody, human IgG2, V domains shown, recombinant human IgG2 kappa; also called sc648) VH: QVQLVESGGGLVKPGGSLRLSCAASGFTFNVYYMNWIRQAPGKGLEWVSYISTSSSAIYYADSVKGRFTISRDNAKNSLYLQMNSLRAEDTAVYYCARRTGSTTVFDYWGQGTLVTVSS VL: EIVLTQSPATLSVSPGERATLSCRASQSINNNLAWYQQKPGQAPRLLIYGASTRATGIPAKFSGSGSGTEFTLTISSLQSENFAVYYCQQYNKWPLTFGGGTKVEIK
